Measured values taken from paper PMC9482650, “Quantitative fragmentomics allow affinity mapping of interactomes” (Nature Communications, 2022).

T1: PDZD2_2, O15018
T1 sequence (O15018 329-429, limits assumed, looked up): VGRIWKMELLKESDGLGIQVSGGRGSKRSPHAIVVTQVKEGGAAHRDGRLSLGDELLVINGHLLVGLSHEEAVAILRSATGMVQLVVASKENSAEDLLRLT

T2: LNX2_3, Q8N448
T2 sequence (Q8N448 463-564, limits assumed, looked up): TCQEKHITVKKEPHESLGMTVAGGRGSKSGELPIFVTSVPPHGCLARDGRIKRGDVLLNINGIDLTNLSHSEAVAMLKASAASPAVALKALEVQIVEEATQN

T3: MPP2, Q14168
T3 sequence (Q14168 180-250, limits assumed, looked up): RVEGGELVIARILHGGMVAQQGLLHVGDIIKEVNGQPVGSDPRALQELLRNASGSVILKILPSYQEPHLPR

T4: GRIP1_4, Q9Y3R0
T4 sequence (Q9Y3R0 467-571, limits assumed, looked up): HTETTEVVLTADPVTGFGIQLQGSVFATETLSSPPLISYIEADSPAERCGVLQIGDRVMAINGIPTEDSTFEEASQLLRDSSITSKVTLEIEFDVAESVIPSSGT

T5: HTRA4, P83105
T5 sequence (P83105 378-476, limits assumed, looked up): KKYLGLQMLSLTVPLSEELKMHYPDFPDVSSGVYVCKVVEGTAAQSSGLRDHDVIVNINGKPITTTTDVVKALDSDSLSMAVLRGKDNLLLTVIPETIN

T6: FRMPD1, Q5SYB0
T6 sequence (Q5SYB0 52-145, limits assumed, looked up): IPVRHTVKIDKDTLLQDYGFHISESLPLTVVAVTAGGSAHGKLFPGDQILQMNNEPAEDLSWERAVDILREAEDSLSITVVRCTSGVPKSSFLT

T7: ARHGAP21, Q5T5U3
T7 sequence (Q5T5U3 45-169, limits assumed, looked up): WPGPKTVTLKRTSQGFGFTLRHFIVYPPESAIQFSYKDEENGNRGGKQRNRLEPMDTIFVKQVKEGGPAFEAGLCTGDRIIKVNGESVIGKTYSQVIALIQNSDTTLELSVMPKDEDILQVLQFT

T8: PDZD7_3, Q9H5P4
T8 sequence (Q9H5P4 857-944, limits assumed, looked up): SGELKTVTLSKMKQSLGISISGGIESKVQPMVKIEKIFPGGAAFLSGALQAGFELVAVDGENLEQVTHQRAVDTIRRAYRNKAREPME

T9: CARD11, Q9BXL7
T9 sequence (Q9BXL7 662-765, limits assumed, looked up): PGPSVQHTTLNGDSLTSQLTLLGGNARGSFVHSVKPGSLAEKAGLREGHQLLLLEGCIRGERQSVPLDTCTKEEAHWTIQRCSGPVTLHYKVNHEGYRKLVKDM

T10: LIN7C, Q9NUP9
T10 sequence (Q9NUP9 88-185, limits assumed, looked up): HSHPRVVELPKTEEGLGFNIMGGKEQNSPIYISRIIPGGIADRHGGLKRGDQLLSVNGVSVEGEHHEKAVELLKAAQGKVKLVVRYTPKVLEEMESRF

T11: LIN7B, Q9HAP6
T11 sequence (Q9HAP6 88-185, limits assumed, looked up): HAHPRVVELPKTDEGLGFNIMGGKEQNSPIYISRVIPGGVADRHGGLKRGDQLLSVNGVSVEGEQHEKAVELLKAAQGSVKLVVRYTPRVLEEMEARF


Tests used:
Test in all cases: holdup assay
Design in all cases: key: below the threshold = too weak to quantify, mostly under pKd 3.1 to 4
Conditions in all cases: plain residues with an end cap or a label only (N-terminal biotin on a linker: ado-ado)
Inadl_8, Q8NI35 = biological target: Inadl_8, Q8NI35
Chain of Inadl_8, Q8NI35 (Q8NI35 1425-1530): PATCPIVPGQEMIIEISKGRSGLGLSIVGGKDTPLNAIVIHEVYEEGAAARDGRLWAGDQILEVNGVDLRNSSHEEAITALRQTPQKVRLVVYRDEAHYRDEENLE

FRMPD2_2, Q68DX3 = biological target: FRMPD2_2, Q68DX3
Chain of FRMPD2_2, Q68DX3 (Q68DX3 944-1038): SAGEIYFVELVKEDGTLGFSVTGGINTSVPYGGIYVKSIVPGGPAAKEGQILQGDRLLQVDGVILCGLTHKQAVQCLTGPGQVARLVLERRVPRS

PDZD2_2, O15018 = biological target: T1, PDZD2_2, O15018
DLG4_2, P78352 = biological target: DLG4_2, P78352
Chain of DLG4_2, P78352 (P78352 155-259): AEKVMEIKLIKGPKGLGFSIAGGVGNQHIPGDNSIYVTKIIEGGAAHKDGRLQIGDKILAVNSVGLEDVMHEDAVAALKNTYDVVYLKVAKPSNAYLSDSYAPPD

LNX2_3, Q8N448 = biological target: T2, LNX2_3, Q8N448
NHERF4_1, Q86UT5-2 = biological target: NHERF4_1, Q86UT5-2
Chain of NHERF4_1, Q86UT5-2 (Q86UT5 other isoform, or with tags, fused parts or gaps): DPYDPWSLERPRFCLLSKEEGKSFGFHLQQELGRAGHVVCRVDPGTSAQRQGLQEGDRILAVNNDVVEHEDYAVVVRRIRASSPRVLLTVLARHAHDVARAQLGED

Inadl_6, Q8NI35 = biological target: Inadl_6, Q8NI35
Chain of Inadl_6, Q8NI35 (Q8NI35 1058-1167): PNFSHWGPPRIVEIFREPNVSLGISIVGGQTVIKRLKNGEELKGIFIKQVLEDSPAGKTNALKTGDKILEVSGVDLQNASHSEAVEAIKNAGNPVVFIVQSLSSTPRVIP

MPP2, Q14168 = biological target: T3, MPP2, Q14168
GRIP1_4, Q9Y3R0 = biological target: T4, GRIP1_4, Q9Y3R0
LNX1_3, Q8TBB1 = biological target: LNX1_3, Q8TBB1
Chain of LNX1_3, Q8TBB1 (Q8TBB1 500-596): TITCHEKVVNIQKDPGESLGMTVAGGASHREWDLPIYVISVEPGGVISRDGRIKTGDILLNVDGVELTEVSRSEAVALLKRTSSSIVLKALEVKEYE

MAGI2_5, Q86UL8 = biological target: MAGI2_5, Q86UL8
Chain of MAGI2_5, Q86UL8 (Q86UL8 915-1017): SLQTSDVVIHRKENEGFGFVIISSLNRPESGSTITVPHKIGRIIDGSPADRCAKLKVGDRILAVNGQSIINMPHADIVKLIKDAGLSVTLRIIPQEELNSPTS

MAST2, Q6P0Q8 = biological target: MAST2, Q6P0Q8
Chain of MAST2, Q6P0Q8 (Q6P0Q8 1099-1202): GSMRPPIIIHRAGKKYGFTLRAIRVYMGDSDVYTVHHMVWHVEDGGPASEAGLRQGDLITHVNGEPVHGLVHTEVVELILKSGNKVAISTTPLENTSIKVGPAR

GRID2IP_1, A4D2P6 = biological target: GRID2IP_1, A4D2P6
Chain of GRID2IP_1, A4D2P6 (A4D2P6 1-87): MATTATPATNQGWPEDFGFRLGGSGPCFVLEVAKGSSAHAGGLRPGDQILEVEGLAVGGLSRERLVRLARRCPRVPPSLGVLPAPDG

IL16_4, Q14005 = biological target: IL16_4, Q14005
Chain of IL16_4, Q14005 (Q14005 1229-1329): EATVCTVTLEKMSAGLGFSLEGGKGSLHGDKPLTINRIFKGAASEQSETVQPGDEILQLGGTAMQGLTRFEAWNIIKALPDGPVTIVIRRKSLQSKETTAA

HTRA4, P83105 = biological target: T5, HTRA4, P83105
FRMPD1, Q5SYB0 = biological target: T6, FRMPD1, Q5SYB0
FRMPD2_1, Q68DX3 = biological target: FRMPD2_1, Q68DX3
Chain of FRMPD2_1, Q68DX3 (Q68DX3 770-861): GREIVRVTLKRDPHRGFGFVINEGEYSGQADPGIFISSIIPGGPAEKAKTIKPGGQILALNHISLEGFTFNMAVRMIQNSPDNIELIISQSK

Inadl_3, Q8NI35 = biological target: Inadl_3, Q8NI35
Chain of Inadl_3, Q8NI35 (Q8NI35 359-469): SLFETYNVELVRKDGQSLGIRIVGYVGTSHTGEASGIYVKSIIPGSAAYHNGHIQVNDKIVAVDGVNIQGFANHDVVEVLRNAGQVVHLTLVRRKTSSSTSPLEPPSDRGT

ARHGAP21, Q5T5U3 = biological target: T7, ARHGAP21, Q5T5U3
PDZD7_3, Q9H5P4 = biological target: T8, PDZD7_3, Q9H5P4
CARD11, Q9BXL7 = biological target: T9, CARD11, Q9BXL7
Inadl_1, Q8NI35 = biological target: Inadl_1, Q8NI35
Chain of Inadl_1, Q8NI35 (Q8NI35 113-229): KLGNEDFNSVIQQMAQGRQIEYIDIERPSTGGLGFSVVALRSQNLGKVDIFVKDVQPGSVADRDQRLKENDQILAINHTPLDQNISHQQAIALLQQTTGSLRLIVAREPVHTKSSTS

AHNAK1, Q09666 = biological target: AHNAK1, Q09666
Chain of AHNAK1, Q09666 (Q09666 4-100): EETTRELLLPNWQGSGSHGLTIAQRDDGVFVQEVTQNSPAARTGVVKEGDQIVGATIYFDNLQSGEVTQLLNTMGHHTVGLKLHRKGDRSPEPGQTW

LIN7C, Q9NUP9 = biological target: T10, LIN7C, Q9NUP9
LIN7B, Q9HAP6 = biological target: T11, LIN7B, Q9HAP6
Inadl_9, Q8NI35 = biological target: Inadl_9, Q8NI35
Chain of Inadl_9, Q8NI35 (Q8NI35 1530-1615): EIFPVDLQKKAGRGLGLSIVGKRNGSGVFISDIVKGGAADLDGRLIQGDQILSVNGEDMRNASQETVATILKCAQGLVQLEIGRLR

NHERF4_4, Q86UT5 = biological target: NHERF4_4, Q86UT5
Chain of NHERF4_4, Q86UT5 (Q86UT5 464-550): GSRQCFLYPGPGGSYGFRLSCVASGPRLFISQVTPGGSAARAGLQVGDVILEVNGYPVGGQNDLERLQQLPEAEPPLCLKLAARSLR

Binder	pKd (Inadl_8, Q8NI35)	pKd (FRMPD2_2, Q68DX3)	pKd (PDZD2_2, O15018)	pKd (DLG4_2, P78352)	pKd (LNX2_3, Q8N448)	pKd (NHERF4_1, Q86UT5-2)	pKd (Inadl_6, Q8NI35)	pKd (MPP2, Q14168)	pKd (GRIP1_4, Q9Y3R0)	pKd (LNX1_3, Q8TBB1)	pKd (MAGI2_5, Q86UL8)	pKd (MAST2, Q6P0Q8)	pKd (GRID2IP_1, A4D2P6)	pKd (IL16_4, Q14005)	pKd (HTRA4, P83105)	pKd (FRMPD1, Q5SYB0)	pKd (FRMPD2_1, Q68DX3)	pKd (Inadl_3, Q8NI35)	pKd (ARHGAP21, Q5T5U3)	pKd (PDZD7_3, Q9H5P4)	other results
GDSSRKEYFI [GYPC, P04921]	below the threshold	below the threshold	4.28	3.61	below the threshold	below the threshold	3.54	4.36	below the threshold	below the threshold	below the threshold	3.68	below the threshold	below the threshold	below the threshold	below the threshold	below the threshold	4.2	below the threshold	below the threshold	pKd (CARD11, Q9BXL7): below the threshold; pKd (Inadl_1, Q8NI35): 4.12; pKd (AHNAK1, Q09666): below the threshold; pKd (LIN7C, Q9NUP9): below the threshold; pKd (LIN7B, Q9HAP6): 3.97; pKd (Inadl_9, Q8NI35): 3.51; pKd (NHERF4_4, Q86UT5): below the threshold
SRPHTNETSL [MCC, P23508]	below the threshold	below the threshold	below the threshold	3.83	below the threshold	4.12	3.83	below the threshold	below the threshold	below the threshold	3.72	5.66	below the threshold	below the threshold	below the threshold	below the threshold	below the threshold	below the threshold	4.01	4.36	pKd (CARD11, Q9BXL7): below the threshold; pKd (Inadl_1, Q8NI35): below the threshold; pKd (AHNAK1, Q09666): below the threshold; pKd (LIN7C, Q9NUP9): 3.65; pKd (LIN7B, Q9HAP6): 3.64; pKd (Inadl_9, Q8NI35): below the threshold; pKd (NHERF4_4, Q86UT5): below the threshold
GSQSQVETEA [FKBP4, Q02790]	below the threshold	below the threshold	below the threshold	3.59	below the threshold	3.97	below the threshold	below the threshold	below the threshold	below the threshold	below the threshold	below the threshold	below the threshold	below the threshold	below the threshold	below the threshold	3.53	below the threshold	below the threshold	below the threshold	pKd (CARD11, Q9BXL7): below the threshold; pKd (Inadl_1, Q8NI35): below the threshold; pKd (AHNAK1, Q09666): below the threshold; pKd (LIN7C, Q9NUP9): below the threshold; pKd (LIN7B, Q9HAP6): 3.62; pKd (Inadl_9, Q8NI35): below the threshold; pKd (NHERF4_4, Q86UT5): below the threshold
ATKDKKITTV [EXOC4, Q96A65]	4.42	below the threshold	3.88	5.85	3.48	3.64	3.53	below the threshold	3.48	below the threshold	3.63	4.92	below the threshold	below the threshold	3.49	below the threshold	3.54	below the threshold	4.09	5.64	pKd (CARD11, Q9BXL7): below the threshold; pKd (Inadl_1, Q8NI35): below the threshold; pKd (AHNAK1, Q09666): below the threshold; pKd (LIN7C, Q9NUP9): below the threshold; pKd (LIN7B, Q9HAP6): below the threshold; pKd (Inadl_9, Q8NI35): 3.63; pKd (NHERF4_4, Q86UT5): 3.99
FHSIKQSTAV [CRHR1, P34998]	3.87	3.7	4.48	4.93	below the threshold	3.81	below the threshold	below the threshold	below the threshold	below the threshold	4.38	5.35	below the threshold	below the threshold	below the threshold	below the threshold	3.93	below the threshold	below the threshold	4.36	pKd (CARD11, Q9BXL7): below the threshold; pKd (Inadl_1, Q8NI35): below the threshold; pKd (AHNAK1, Q09666): below the threshold; pKd (LIN7C, Q9NUP9): below the threshold; pKd (LIN7B, Q9HAP6): below the threshold; pKd (Inadl_9, Q8NI35): 3.83; pKd (NHERF4_4, Q86UT5): 3.88
